Measured values from publication PMC11146590.

Molecular target: Oct4 C48S (purified) (Mus musculus, UniProt P20263 1-352, C178S)
Test: EMSA

Oct4 C48S (purified), sequence (P20263 whole entry C178S): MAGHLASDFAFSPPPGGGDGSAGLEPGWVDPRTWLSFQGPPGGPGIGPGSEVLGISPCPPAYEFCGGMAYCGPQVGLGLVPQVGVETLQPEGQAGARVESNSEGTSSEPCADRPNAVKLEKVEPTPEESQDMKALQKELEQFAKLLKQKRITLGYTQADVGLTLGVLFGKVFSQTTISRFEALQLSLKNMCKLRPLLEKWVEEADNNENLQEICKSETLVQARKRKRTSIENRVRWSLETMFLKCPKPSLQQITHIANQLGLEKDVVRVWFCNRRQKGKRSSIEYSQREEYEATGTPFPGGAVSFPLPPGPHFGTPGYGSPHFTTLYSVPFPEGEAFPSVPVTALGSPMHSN

B1: wild-type octamer probe (dsDNA)
DNA 1: TGTCGAATGCAAATCACT
DNA 2: AGTGATTTGCATTCGACA
B1: binds.
